US20230279089A1 (GlaxoSmithKline, published 2023)

What was measured:
Mouse TLL1 = molecular target: T1, Mouse TLL1 (mouse, UniProt Q62381 148-1013, limits assumed); assay: cell-based or functional assay
T1 sequence (looked up): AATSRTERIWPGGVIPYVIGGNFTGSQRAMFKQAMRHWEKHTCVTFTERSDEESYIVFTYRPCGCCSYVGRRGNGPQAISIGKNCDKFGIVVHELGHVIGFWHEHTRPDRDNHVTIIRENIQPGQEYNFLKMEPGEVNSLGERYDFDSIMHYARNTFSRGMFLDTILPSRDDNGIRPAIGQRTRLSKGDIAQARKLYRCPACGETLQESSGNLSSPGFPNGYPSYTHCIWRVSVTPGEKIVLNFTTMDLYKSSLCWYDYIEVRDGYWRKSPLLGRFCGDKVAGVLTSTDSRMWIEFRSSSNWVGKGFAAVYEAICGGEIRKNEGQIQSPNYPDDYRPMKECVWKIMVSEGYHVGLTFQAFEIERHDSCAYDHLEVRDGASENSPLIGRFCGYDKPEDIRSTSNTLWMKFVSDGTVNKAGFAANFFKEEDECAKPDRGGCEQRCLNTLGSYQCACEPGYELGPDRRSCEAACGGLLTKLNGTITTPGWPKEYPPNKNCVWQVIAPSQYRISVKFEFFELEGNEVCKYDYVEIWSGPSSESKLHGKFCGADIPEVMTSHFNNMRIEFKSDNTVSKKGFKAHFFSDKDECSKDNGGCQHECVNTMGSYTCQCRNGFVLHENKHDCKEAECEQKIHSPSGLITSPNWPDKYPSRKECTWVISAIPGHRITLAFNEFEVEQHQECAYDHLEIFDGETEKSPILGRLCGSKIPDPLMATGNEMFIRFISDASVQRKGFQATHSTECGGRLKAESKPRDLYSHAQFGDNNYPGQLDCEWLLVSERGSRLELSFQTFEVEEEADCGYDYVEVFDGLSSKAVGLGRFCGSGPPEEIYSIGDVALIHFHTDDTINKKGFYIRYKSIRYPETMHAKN

Cyno TLL1 = molecular target: T2, Cyno TLL1 (cyno, UniProt A0A1D5QYV0 148-1013 (rhesus entry)); assay: cell-based or functional assay
T2 sequence: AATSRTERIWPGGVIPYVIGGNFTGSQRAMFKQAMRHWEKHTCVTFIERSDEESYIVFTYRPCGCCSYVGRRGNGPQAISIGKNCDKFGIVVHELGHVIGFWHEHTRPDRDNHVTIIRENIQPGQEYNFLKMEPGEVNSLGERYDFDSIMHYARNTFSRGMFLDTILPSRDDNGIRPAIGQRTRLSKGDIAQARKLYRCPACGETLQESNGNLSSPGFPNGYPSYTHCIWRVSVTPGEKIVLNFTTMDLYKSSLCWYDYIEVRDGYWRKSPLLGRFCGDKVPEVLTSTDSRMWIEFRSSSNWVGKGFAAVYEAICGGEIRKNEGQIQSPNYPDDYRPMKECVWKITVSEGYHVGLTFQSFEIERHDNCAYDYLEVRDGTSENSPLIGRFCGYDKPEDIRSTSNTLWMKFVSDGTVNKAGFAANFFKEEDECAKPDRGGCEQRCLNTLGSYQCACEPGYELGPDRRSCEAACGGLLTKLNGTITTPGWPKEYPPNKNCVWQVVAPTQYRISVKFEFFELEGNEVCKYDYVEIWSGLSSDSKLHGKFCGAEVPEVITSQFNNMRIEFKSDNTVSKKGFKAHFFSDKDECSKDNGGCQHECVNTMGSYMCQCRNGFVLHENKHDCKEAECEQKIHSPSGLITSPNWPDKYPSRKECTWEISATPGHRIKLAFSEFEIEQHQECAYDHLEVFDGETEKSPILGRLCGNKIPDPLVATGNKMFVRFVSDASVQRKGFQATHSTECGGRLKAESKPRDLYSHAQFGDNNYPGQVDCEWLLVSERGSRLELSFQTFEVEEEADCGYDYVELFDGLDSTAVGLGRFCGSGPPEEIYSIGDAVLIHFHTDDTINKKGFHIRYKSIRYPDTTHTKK

Human BMP1-1 [1] = molecular target: T3, Human BMP1-1 (human, UniProt P13497-2 121-730, limits assumed); assay: cell-based or functional assay
T3 sequence (looked up): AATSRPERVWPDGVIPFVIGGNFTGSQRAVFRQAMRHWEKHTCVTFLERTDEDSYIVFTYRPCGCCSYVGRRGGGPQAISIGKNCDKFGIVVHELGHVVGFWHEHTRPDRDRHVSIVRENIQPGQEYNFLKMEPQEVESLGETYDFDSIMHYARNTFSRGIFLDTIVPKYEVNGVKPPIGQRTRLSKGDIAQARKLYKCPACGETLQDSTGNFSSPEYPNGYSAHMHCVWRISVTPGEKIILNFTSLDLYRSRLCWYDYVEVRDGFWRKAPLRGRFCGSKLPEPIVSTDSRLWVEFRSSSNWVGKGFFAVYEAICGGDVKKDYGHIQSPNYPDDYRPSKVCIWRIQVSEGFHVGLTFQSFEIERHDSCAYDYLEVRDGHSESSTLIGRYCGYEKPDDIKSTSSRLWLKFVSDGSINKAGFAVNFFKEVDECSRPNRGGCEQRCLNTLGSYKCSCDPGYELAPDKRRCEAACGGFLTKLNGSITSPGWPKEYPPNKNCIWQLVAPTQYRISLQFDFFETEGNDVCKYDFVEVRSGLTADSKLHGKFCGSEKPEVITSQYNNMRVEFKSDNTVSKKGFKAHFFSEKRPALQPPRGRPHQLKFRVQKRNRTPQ

Mouse BMP1-3: 126-707 = molecular target: T4, Mouse BMP1-3: 126-707 (mouse, UniProt P98063 126-707); assay: cell-based or functional assay
T4 sequence (looked up): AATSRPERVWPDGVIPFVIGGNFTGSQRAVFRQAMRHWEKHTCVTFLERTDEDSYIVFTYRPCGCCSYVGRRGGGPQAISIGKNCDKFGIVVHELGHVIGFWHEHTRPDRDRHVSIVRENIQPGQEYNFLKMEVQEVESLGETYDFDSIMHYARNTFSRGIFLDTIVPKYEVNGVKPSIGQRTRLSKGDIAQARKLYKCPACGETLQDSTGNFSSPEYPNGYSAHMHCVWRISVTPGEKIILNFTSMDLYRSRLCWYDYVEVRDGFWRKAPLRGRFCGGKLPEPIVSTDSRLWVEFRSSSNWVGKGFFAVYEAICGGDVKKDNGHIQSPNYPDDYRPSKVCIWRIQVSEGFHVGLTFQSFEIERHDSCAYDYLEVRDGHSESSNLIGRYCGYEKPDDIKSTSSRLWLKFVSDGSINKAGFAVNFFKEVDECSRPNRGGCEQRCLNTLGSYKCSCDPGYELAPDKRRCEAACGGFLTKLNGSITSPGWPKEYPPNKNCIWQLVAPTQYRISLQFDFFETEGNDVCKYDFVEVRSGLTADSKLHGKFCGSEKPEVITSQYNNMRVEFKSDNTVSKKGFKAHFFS

[2] = molecular target: T5, Human BMP1 CD+CUB1 truncated antigen (human, UniProt P13497 121-434, limits assumed); assay: SPR, mAb captured on protein A, HBS-EP
T5 construct: domain: CD+CUB1
T5 sequence (looked up): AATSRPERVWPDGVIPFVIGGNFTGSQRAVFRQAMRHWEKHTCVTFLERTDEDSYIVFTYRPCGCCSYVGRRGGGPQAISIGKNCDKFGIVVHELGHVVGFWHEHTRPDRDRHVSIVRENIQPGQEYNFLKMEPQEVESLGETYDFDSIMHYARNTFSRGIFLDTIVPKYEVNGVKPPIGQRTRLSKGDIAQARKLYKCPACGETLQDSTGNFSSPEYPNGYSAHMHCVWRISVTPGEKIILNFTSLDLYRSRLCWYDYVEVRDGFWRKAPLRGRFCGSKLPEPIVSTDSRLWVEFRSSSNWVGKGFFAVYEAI
Protocol: The 16 lead panel antibodies expressed in HEK cells were evaluated for binding to a truncated version of human BMP containing the catalytic domain and truncated domain (Human BMP1 CD+CUB1 truncated antigen) by SPR using BIACORE T200. HBS-EP+ buffer was used and the experiment run at 25° C. Protein A was immobilised to a CM5 sensor chip via amine coupling. The lead panel antibodies were captured onto protein A surface. Human BMP1 CD+CUB1 was then passed over the captured antibodies at various concentrations.

Human BMP1-1 [3] = molecular target: T3, Human BMP1-1; assay: cell-based or functional assay; remark: listed apart in the source

IC50, FRET enzyme activity, 800 pM biotinylated mTLL-1 (Mouse TLL1): 0.56 nM | IC50, FRET enzyme activity, 750 pM biotinylated cynoTLL-1 (Cyno TLL1): 20 pM | IC50, FRET enzyme activity, 62.5 pM huBMP1 (Human BMP1-1 [1]): 60 pM | IC50 (read off the curve) (Mouse BMP1-3: 126-707): ~0.06 nM | Kd [2]: 1.6 nM | IC50 (read off the curve) (Human BMP1-1 [3]): ~0.5 nM
B1: 13Y039-8F02-2949 (antibody, human IgG1, kappa, V domains shown)
VH: QVQLVQSGAEVKKPGSSVKVSCKASGGTFSEWAISWVRQAPGQGLEWMGAIIPKFGTAEYAQKFQGRVTITADESTSTAYMELSSLRSEDTAVYYCARGAKYYYAEDYMDVWGKGTTVTVSS
VL: DIQMTQSPSSVSASVGDRVTITCRASQGISSWLAWYQQKPGKAPKLLIYAASSLQSGVPSRFSGSGSGTDFTLTISSLQPEDFATYYCQQALSLPYTFGGGTKVEIKR
notes: Fully human IgG1 LAGA, kappa; HEK expressed
